Reference: US12630600B2 (MEDIMMUNE LIMITED, priority 2022, dated 2026)
Starred links: 1 amine or outer side, 2 acyl side, 3 side chain; linkers in the order of their positions; H or OH if unused. Non-standard residues stand in square brackets, D forms with d. Groups on a side chain read outwards from the residue. No end group written: not given here. *: point of attachment. C20 diacid = O=C(O)CCCCCCCCCCCCCCCCCCC(=O)*; C18 diacid = O=C(O)CCCCCCCCCCCCCCCCC(=O)*; γGlu = O=C(O)[C@H](CCC(=O)[*:2])N[*:1]; αMeF = C[C@](N)(Cc1ccccc1)C(=O)O; AEEA = NCCOCCOCC(=O)O; Aib = CC(C)(N)C(=O)O

Key:
[1] = target: human GLP-1 receptor (human, UniProt P43220); assay: cell-based or functional assay
[2] = target: human glucagon receptor (human, UniProt P47871); assay: cell-based or functional assay

Row | Binder | cAMP production EC50 [1] [pM] | cAMP production EC50 [2] [pM]
1 | H[Aib]QGTFTSDVSK[αMeF]LDKK([AEEA-AEEA-γGlu-C18 diacid])RAQDFVRWLEA[Aib]G-NH2 (N-terminus assumed; SMILES CC(C)C[C@H](NC(=O)[C@H](Cc1c[nH]c2ccccc12)NC(=O)[C@H](CCCNC(=N)N)NC(=O)[C@@H](NC(=O)[C@H](Cc1ccccc1)NC(=O)[C@H](CC(=O)O)NC(=O)[C@H](CCC(N)=O)NC(=O)[C@H](C)NC(=O)[C@H](CCCNC(=N)N)NC(=O)[C@H](CCCCNC(=O)COCCOCCNC(=O)COCCOCCNC(=O)CC[C@H](NC(=O)CCCCCCCCCCCCCCCCC(=O)O)C(=O)O)NC(=O)[C@H](CCCCN)NC(=O)[C@H](CC(=O)O)NC(=O)[C@H](CC(C)C)NC(=O)[C@](C)(Cc1ccccc1)NC(=O)[C@H](CCCCN)NC(=O)[C@H](CO)NC(=O)[C@@H](NC(=O)[C@H](CC(=O)O)NC(=O)[C@H](CO)NC(=O)[C@@H](NC(=O)[C@H](Cc1ccccc1)NC(=O)[C@@H](NC(=O)CNC(=O)[C@H](CCC(N)=O)NC(=O)C(C)(C)NC(=O)[C@@H](N)Cc1c[nH]cn1)[C@@H](C)O)[C@@H](C)O)C(C)C)C(C)C)C(=O)N[C@@H](CCC(=O)O)C(=O)N[C@@H](C)C(=O)NC(C)(C)C(=O)NCC(N)=O) [Peptide 438] | 17.9 | 68.9
2 | H[Aib]QGTFTSDVSK[αMeF]LDTK([AEEA-AEEA-γGlu-C18 diacid])RARDFVQ[Aib]LLE[Aib]G-OH (N-terminus assumed; SMILES CC(C)C[C@H](NC(=O)[C@H](CC(C)C)NC(=O)C(C)(C)NC(=O)[C@H](CCC(N)=O)NC(=O)[C@@H](NC(=O)[C@H](Cc1ccccc1)NC(=O)[C@H](CC(=O)O)NC(=O)[C@H](CCCNC(=N)N)NC(=O)[C@H](C)NC(=O)[C@H](CCCNC(=N)N)NC(=O)[C@H](CCCCNC(=O)COCCOCCNC(=O)COCCOCCNC(=O)CC[C@H](NC(=O)CCCCCCCCCCCCCCCCC(=O)O)C(=O)O)NC(=O)[C@@H](NC(=O)[C@H](CC(=O)O)NC(=O)[C@H](CC(C)C)NC(=O)[C@](C)(Cc1ccccc1)NC(=O)[C@H](CCCCN)NC(=O)[C@H](CO)NC(=O)[C@@H](NC(=O)[C@H](CC(=O)O)NC(=O)[C@H](CO)NC(=O)[C@@H](NC(=O)[C@H](Cc1ccccc1)NC(=O)[C@@H](NC(=O)CNC(=O)[C@H](CCC(N)=O)NC(=O)C(C)(C)NC(=O)[C@@H](N)Cc1c[nH]cn1)[C@@H](C)O)[C@@H](C)O)C(C)C)[C@@H](C)O)C(C)C)C(=O)N[C@@H](CCC(=O)O)C(=O)NC(C)(C)C(=O)NCC(=O)O) [Peptide 435] | 22.7 | 240
3 | H[Aib]QGTFTSDVSK[αMeF]LDRK([AEEA-AEEA-γGlu-C20 diacid])RAQDFVRWLV[Aib]E-NH2 (N-terminus assumed; SMILES CC(C)C[C@H](NC(=O)[C@H](Cc1c[nH]c2ccccc12)NC(=O)[C@H](CCCNC(=N)N)NC(=O)[C@@H](NC(=O)[C@H](Cc1ccccc1)NC(=O)[C@H](CC(=O)O)NC(=O)[C@H](CCC(N)=O)NC(=O)[C@H](C)NC(=O)[C@H](CCCNC(=N)N)NC(=O)[C@H](CCCCNC(=O)COCCOCCNC(=O)COCCOCCNC(=O)CC[C@H](NC(=O)CCCCCCCCCCCCCCCCCCC(=O)O)C(=O)O)NC(=O)[C@H](CCCNC(=N)N)NC(=O)[C@H](CC(=O)O)NC(=O)[C@H](CC(C)C)NC(=O)[C@](C)(Cc1ccccc1)NC(=O)[C@H](CCCCN)NC(=O)[C@H](CO)NC(=O)[C@@H](NC(=O)[C@H](CC(=O)O)NC(=O)[C@H](CO)NC(=O)[C@@H](NC(=O)[C@H](Cc1ccccc1)NC(=O)[C@@H](NC(=O)CNC(=O)[C@H](CCC(N)=O)NC(=O)C(C)(C)NC(=O)[C@@H](N)Cc1c[nH]cn1)[C@@H](C)O)[C@@H](C)O)C(C)C)C(C)C)C(=O)N[C@H](C(=O)NC(C)(C)C(=O)N[C@@H](CCC(=O)O)C(N)=O)C(C)C) [Peptide 437] | 26.9 | 96.9
4 | H[Aib]QGTFTSDVSK[αMeF]LDRK([AEEA-AEEA-γGlu-C18 diacid])RAQDFVRWLL[Aib]E-NH2 (N-terminus assumed; SMILES CC(C)C[C@H](NC(=O)[C@H](Cc1c[nH]c2ccccc12)NC(=O)[C@H](CCCNC(=N)N)NC(=O)[C@@H](NC(=O)[C@H](Cc1ccccc1)NC(=O)[C@H](CC(=O)O)NC(=O)[C@H](CCC(N)=O)NC(=O)[C@H](C)NC(=O)[C@H](CCCNC(=N)N)NC(=O)[C@H](CCCCNC(=O)COCCOCCNC(=O)COCCOCCNC(=O)CC[C@H](NC(=O)CCCCCCCCCCCCCCCCC(=O)O)C(=O)O)NC(=O)[C@H](CCCNC(=N)N)NC(=O)[C@H](CC(=O)O)NC(=O)[C@H](CC(C)C)NC(=O)[C@](C)(Cc1ccccc1)NC(=O)[C@H](CCCCN)NC(=O)[C@H](CO)NC(=O)[C@@H](NC(=O)[C@H](CC(=O)O)NC(=O)[C@H](CO)NC(=O)[C@@H](NC(=O)[C@H](Cc1ccccc1)NC(=O)[C@@H](NC(=O)CNC(=O)[C@H](CCC(N)=O)NC(=O)C(C)(C)NC(=O)[C@@H](N)Cc1c[nH]cn1)[C@@H](C)O)[C@@H](C)O)C(C)C)C(C)C)C(=O)N[C@@H](CC(C)C)C(=O)NC(C)(C)C(=O)N[C@@H](CCC(=O)O)C(N)=O) [Peptide 439] | 30.6 | 57.7
5 | H[Aib]QGTFTSDVSK[αMeF]LDRK([AEEA-AEEA-γGlu-C18 diacid])RAQDFVRWLV[Aib]E-NH2 (N-terminus assumed; SMILES CC(C)C[C@H](NC(=O)[C@H](Cc1c[nH]c2ccccc12)NC(=O)[C@H](CCCNC(=N)N)NC(=O)[C@@H](NC(=O)[C@H](Cc1ccccc1)NC(=O)[C@H](CC(=O)O)NC(=O)[C@H](CCC(N)=O)NC(=O)[C@H](C)NC(=O)[C@H](CCCNC(=N)N)NC(=O)[C@H](CCCCNC(=O)COCCOCCNC(=O)COCCOCCNC(=O)CC[C@H](NC(=O)CCCCCCCCCCCCCCCCC(=O)O)C(=O)O)NC(=O)[C@H](CCCNC(=N)N)NC(=O)[C@H](CC(=O)O)NC(=O)[C@H](CC(C)C)NC(=O)[C@](C)(Cc1ccccc1)NC(=O)[C@H](CCCCN)NC(=O)[C@H](CO)NC(=O)[C@@H](NC(=O)[C@H](CC(=O)O)NC(=O)[C@H](CO)NC(=O)[C@@H](NC(=O)[C@H](Cc1ccccc1)NC(=O)[C@@H](NC(=O)CNC(=O)[C@H](CCC(N)=O)NC(=O)C(C)(C)NC(=O)[C@@H](N)Cc1c[nH]cn1)[C@@H](C)O)[C@@H](C)O)C(C)C)C(C)C)C(=O)N[C@H](C(=O)NC(C)(C)C(=O)N[C@@H](CCC(=O)O)C(N)=O)C(C)C) [Peptide 436] | 7.43 | 68.8

The remaining lines, values ahead:

Row | cAMP production EC50 [1] [pM] | cAMP production EC50 [2] [pM] | Binder
6 | 154 | 81 | H[Aib]QGTFTSDVSK[αMeF]LDKK([AEEA-AEEA-γGlu-C20 diacid])RARDFVRWLL[Aib]E-OH (N-terminus assumed; SMILES CC(C)C[C@H](NC(=O)[C@H](Cc1c[nH]c2ccccc12)NC(=O)[C@H](CCCNC(=N)N)NC(=O)[C@@H](NC(=O)[C@H](Cc1ccccc1)NC(=O)[C@H](CC(=O)O)NC(=O)[C@H](CCCNC(=N)N)NC(=O)[C@H](C)NC(=O)[C@H](CCCNC(=N)N)NC(=O)[C@H](CCCCNC(=O)COCCOCCNC(=O)COCCOCCNC(=O)CC[C@H](NC(=O)CCCCCCCCCCCCCCCCCCC(=O)O)C(=O)O)NC(=O)[C@H](CCCCN)NC(=O)[C@H](CC(=O)O)NC(=O)[C@H](CC(C)C)NC(=O)[C@](C)(Cc1ccccc1)NC(=O)[C@H](CCCCN)NC(=O)[C@H](CO)NC(=O)[C@@H](NC(=O)[C@H](CC(=O)O)NC(=O)[C@H](CO)NC(=O)[C@@H](NC(=O)[C@H](Cc1ccccc1)NC(=O)[C@@H](NC(=O)CNC(=O)[C@H](CCC(N)=O)NC(=O)C(C)(C)NC(=O)[C@@H](N)Cc1c[nH]cn1)[C@@H](C)O)[C@@H](C)O)C(C)C)C(C)C)C(=O)N[C@@H](CC(C)C)C(=O)NC(C)(C)C(=O)N[C@@H](CCC(=O)O)C(=O)O) [Peptide 440]
7 | 19.1 | 35.8 | H[Aib]QGTFTSDVSK[αMeF]LDKK([AEEA-AEEA-γGlu-C18 diacid])RAQDFVRWLLE[Aib]G-NH2 (N-terminus assumed; SMILES CC(C)C[C@H](NC(=O)[C@H](Cc1c[nH]c2ccccc12)NC(=O)[C@H](CCCNC(=N)N)NC(=O)[C@@H](NC(=O)[C@H](Cc1ccccc1)NC(=O)[C@H](CC(=O)O)NC(=O)[C@H](CCC(N)=O)NC(=O)[C@H](C)NC(=O)[C@H](CCCNC(=N)N)NC(=O)[C@H](CCCCNC(=O)COCCOCCNC(=O)COCCOCCNC(=O)CC[C@H](NC(=O)CCCCCCCCCCCCCCCCC(=O)O)C(=O)O)NC(=O)[C@H](CCCCN)NC(=O)[C@H](CC(=O)O)NC(=O)[C@H](CC(C)C)NC(=O)[C@](C)(Cc1ccccc1)NC(=O)[C@H](CCCCN)NC(=O)[C@H](CO)NC(=O)[C@@H](NC(=O)[C@H](CC(=O)O)NC(=O)[C@H](CO)NC(=O)[C@@H](NC(=O)[C@H](Cc1ccccc1)NC(=O)[C@@H](NC(=O)CNC(=O)[C@H](CCC(N)=O)NC(=O)C(C)(C)NC(=O)[C@@H](N)Cc1c[nH]cn1)[C@@H](C)O)[C@@H](C)O)C(C)C)C(C)C)C(=O)N[C@@H](CC(C)C)C(=O)N[C@@H](CCC(=O)O)C(=O)NC(C)(C)C(=O)NCC(N)=O) [Peptide 442]
8 | 62.7 | 72.8 | H[Aib]QGTFTSDVSK[αMeF]LDKK([AEEA-AEEA-γGlu-C20 diacid])RAQDFVRWLL[Aib]E-NH2 (N-terminus assumed; SMILES CC(C)C[C@H](NC(=O)[C@H](Cc1c[nH]c2ccccc12)NC(=O)[C@H](CCCNC(=N)N)NC(=O)[C@@H](NC(=O)[C@H](Cc1ccccc1)NC(=O)[C@H](CC(=O)O)NC(=O)[C@H](CCC(N)=O)NC(=O)[C@H](C)NC(=O)[C@H](CCCNC(=N)N)NC(=O)[C@H](CCCCNC(=O)COCCOCCNC(=O)COCCOCCNC(=O)CC[C@H](NC(=O)CCCCCCCCCCCCCCCCCCC(=O)O)C(=O)O)NC(=O)[C@H](CCCCN)NC(=O)[C@H](CC(=O)O)NC(=O)[C@H](CC(C)C)NC(=O)[C@](C)(Cc1ccccc1)NC(=O)[C@H](CCCCN)NC(=O)[C@H](CO)NC(=O)[C@@H](NC(=O)[C@H](CC(=O)O)NC(=O)[C@H](CO)NC(=O)[C@@H](NC(=O)[C@H](Cc1ccccc1)NC(=O)[C@@H](NC(=O)CNC(=O)[C@H](CCC(N)=O)NC(=O)C(C)(C)NC(=O)[C@@H](N)Cc1c[nH]cn1)[C@@H](C)O)[C@@H](C)O)C(C)C)C(C)C)C(=O)N[C@@H](CC(C)C)C(=O)NC(C)(C)C(=O)N[C@@H](CCC(=O)O)C(N)=O) [Peptide 441]
